The results in this text go back to patent US20240318156A1.

In data set [1] the target is T1, Recombinant human GM2 activator protein (GM2AP) containing an N-terminal 6×-histidine tag, P17900.
T1 chain: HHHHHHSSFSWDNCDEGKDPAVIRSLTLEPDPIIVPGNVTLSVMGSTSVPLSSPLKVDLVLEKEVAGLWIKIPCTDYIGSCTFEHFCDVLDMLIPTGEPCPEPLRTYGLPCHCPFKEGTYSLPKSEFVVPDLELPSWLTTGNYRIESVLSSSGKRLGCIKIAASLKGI

The target in data set [2] is cation independent mannose 6-phosphate receptor (CI-MPR) (human) (UniProt P11717). As to the kind of experiment: cell-based or functional assay.
Chain of UniProt P11717 (P11717 41-2491): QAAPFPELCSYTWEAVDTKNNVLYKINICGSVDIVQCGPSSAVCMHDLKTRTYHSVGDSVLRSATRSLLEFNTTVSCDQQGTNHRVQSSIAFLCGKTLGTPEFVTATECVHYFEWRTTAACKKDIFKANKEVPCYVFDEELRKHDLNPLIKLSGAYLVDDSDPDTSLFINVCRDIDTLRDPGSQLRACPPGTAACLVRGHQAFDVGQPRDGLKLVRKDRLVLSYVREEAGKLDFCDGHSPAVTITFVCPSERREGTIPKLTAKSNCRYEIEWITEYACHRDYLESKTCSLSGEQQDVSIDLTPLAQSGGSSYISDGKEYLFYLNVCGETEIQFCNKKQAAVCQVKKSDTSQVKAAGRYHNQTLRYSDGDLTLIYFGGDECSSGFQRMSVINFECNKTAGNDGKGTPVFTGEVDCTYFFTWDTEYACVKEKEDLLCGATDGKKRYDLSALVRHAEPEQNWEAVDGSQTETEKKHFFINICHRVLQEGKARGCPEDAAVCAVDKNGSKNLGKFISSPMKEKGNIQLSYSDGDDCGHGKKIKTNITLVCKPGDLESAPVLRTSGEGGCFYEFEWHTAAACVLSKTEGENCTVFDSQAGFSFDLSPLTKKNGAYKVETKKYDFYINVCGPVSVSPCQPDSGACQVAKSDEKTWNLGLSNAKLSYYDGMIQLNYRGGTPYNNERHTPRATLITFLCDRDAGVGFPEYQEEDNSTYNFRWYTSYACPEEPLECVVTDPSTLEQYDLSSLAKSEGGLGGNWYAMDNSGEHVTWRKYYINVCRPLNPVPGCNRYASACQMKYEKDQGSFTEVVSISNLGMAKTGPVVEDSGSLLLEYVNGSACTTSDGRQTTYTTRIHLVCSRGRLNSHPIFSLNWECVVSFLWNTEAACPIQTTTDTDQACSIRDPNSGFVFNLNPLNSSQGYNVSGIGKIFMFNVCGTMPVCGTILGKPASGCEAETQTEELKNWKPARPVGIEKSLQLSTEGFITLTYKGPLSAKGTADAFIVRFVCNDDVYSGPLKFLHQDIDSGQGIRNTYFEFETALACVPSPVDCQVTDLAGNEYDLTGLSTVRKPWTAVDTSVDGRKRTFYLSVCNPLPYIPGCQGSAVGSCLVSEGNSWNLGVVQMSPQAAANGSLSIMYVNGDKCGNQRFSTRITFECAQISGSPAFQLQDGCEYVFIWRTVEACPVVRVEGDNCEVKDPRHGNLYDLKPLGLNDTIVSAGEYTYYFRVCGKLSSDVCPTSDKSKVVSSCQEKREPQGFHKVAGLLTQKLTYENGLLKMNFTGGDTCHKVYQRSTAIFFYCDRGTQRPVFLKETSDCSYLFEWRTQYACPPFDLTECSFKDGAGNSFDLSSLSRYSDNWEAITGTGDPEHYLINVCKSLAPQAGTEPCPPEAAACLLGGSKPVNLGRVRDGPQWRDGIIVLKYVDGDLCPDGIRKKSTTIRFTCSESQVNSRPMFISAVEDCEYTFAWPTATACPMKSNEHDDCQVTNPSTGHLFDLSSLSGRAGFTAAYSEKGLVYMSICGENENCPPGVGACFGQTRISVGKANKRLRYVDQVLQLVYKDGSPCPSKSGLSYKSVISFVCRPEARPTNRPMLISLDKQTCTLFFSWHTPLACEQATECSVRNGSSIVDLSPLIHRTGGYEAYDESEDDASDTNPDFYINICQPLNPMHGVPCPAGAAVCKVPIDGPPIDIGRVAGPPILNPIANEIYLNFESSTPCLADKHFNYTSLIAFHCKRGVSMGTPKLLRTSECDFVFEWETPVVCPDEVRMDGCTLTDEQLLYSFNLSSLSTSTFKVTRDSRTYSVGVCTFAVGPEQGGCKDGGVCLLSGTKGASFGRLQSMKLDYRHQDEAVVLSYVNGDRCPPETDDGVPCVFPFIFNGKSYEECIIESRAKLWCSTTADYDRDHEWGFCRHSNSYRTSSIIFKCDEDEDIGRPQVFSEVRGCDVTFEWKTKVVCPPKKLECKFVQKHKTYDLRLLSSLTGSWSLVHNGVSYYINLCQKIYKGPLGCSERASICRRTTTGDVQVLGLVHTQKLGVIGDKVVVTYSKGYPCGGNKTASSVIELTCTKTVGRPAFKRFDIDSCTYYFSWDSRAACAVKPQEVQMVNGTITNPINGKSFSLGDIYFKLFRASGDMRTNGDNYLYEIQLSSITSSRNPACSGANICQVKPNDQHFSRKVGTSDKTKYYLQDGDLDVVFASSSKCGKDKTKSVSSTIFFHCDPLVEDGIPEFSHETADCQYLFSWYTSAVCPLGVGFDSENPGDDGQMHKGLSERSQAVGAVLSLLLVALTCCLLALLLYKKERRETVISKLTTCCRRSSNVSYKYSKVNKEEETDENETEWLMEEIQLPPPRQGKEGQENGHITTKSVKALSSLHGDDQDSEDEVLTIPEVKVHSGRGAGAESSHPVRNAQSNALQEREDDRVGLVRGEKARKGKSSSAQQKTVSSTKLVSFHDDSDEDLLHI

B1: HexM (Modified α/α homodimer) (protein)
chain: TLEKNVLVVSVVTPGCNQLPTLESVENYTLTINDDQCLLLSETVWGALRGLETFSQLVWKSAEGTFFINKTEIEDFPRFPHRGLLLDTSRHYLPLKSILDTLDVMAYNKLNVFHWHLVDDQSFPYESFTFPELMRKGSYSLSHIYTAQDVKEVIEYARLRGIRVLAEFDTPGHTLSWGPGIPGLLTPCYSGSEPSGTFGPVNPSLNNTYEFMSTFFLEVSSVFPDFYLHLGGDEVDFTCWKSNPEIQDFMRKKGFGEDFKQLESFYIQTLLDIVSSYGKGYVVWQEVFDNKVKIQPDTIIQVWREDIPVNYMKELELVTKAGFRALLSAPWYLNRISYGQDWRKFYKVEPLAFEGTPEQKALVIGGEACMWGEYVDATNLVPRLWPRAGAVAERLWSNKLTRDMDDAYDRLSHFRCELVRRGVAAQPLYAGYCNQEFEQT
As to B1, in data set [1], the “GM2AP-dependent kinetics of GM2 hydrolysis” value was “GM2AP binding kinetics to the Hex homodimers was comparable to the wild type heterodimer”; the Km (Kinetic data of FIG. 2, GM2AP-dependent GM2 degradation) worked out at 19.6 µM; the Km GM2AP worked out at 19.6 µM; the Km [GM2AP], µM (GM2AP-dependent GM2 hydrolysis, natural substrate assay) was found to be 19.6 µM. The K uptake (nM) MUG activity in data set [2] came out at 130 nM.

B2: HexD3 (Modified α/α homodimer) (protein)
chain: ARAPSVSAKPGPALWPLPLSVKMTPNLLHLAPENFYISHSPNSTAGPSCTLLEEAFRRYHGYIFGFYKWHHEPAEFQAKTQVQQLLVSITLQSECDAFPNISSDESYTLLVKEPVAVLKANRVWGALRGLETFSQLVYQDSYGTFTINESTIIDSPRFPHRGLLLDTSRHYLPLKSILDTLDVMAYNKLNVFHWHLVDDQSFPYESFTFPELMRKGSYSLSHIYTAQDVKEVIEYARLRGIRVLAEFDTPGHTLSWGPGIPGLLTPCYSGSEPSGTFGPVNPSLNNTYEFMSTFFLEVSSVFPDFYLHLGGDEVDFTCWKSNPEIQDFMRKKGFGEDFKQLESFYIQTLLDIVSSYGKGYVVWQEVFDNKVKIQPDTIIQVWREDIPVNYMKELELVTKAGFRALLSAPWYLNRISYGQDWRKFYKVEPLAFEGTPEQKALVIGGEACMWGEYVDATNLVPRLWPRAGAVAERLWSNKLTRDMDDAYDRLSHFRCELVRRGVAAQPLYAGYCNQEFEQT
On to B2, for which, in data set [1], the Km (Kinetic data of FIG. 2, GM2AP-dependent GM2 degradation) was 13.7 µM; the Km GM2AP worked out at 13.7 µM; the Km [GM2AP], µM (GM2AP-dependent GM2 hydrolysis, natural substrate assay) was 13.7 µM. This molecule came in with a K uptake (nM) MUG activity in data set [2] of 5.8 nM.

B3: HexA (wild-type; α/β heterodimer) (protein)
chain 1: TLEKNVLVVSVVTPGCNQLPTLESVENYTLTINDDQCLLLSETVWGALRGLETFSQLVWKSAEGTFFINKTEIEDFPRFPHRGLLLDTSRHYLPLSSILDTLDVMAYNKLNVFHWHLVDDPSFPYESFTFPELMRKGSYNPVTHIYTAQDVKEVIEYARLRGIRVLAEFDTPGHTLSWGPGIPGLLTPCYSGSEPSGTFGPVNPSLNNTYEFMSTFFLEVSSVFPDFYLHLGGDEVDFTCWKSNPEIQDFMRKKGFGEDFKQLESFYIQTLLDIVSSYGKGYVVWQEVFDNKVKIQPDTIIQVWREDIPVNYMKELELVTKAGFRALLSAPWYLNRISYGPDWKDFYIVEPLAFEGTPEQKALVIGGEACMWGEYVDNTNLVPRLWPRAGAVAERLWSNKLTSDLTFAYERLSHFRCELLRRGVQAQPLNVGFCEQEFEQT
chain 2: ARAPSVSAKPGPALWPLPLSVKMTPNLLHLAPENFYISHSPNSTAGPSCTLLEEAFRYHGYIFGFYKWHHEPAEFQAKTQVQQLLVSITLQSECDAFPNISSDESYTLLVKEPVAVLKANRVWGALRGLETFSQLVYQDSYGTFTINESTIIDSPRFSHRGILIDTSRHYLPVKIILKTLDAMAFNKFNVLHWHIVDDQSFPYQSITFPELSNKGSYSLSHVYTPNDVRMVIEYARLRGIRVLPEFDTPGHTLSWGKGQKDLLTPCYSRQNKLDSFGPINPTLNTTYSFLTTFFKEISEVFPDQFIHLGGDEVEFKCWESNPKIQDFMRQKGFGTDFKKLESFYIQKVLDIIATINKGSIVWQEVFDDKAKLAPGTIVEVWKDSAYPEELSRVTASGFPVILSAPWYLDLISYGQDWRKYYKVEPLDFGGTQKQKQLFIGGEACLWGEYVDATNLTPRLWPRASAVGERLWSSKDVRDMDDAYDRLTRHRCRMVERGIAAQPLYAGYCNHENM
Turning to B3, in data set [1], the Km (Kinetic data of FIG. 2, GM2AP-dependent GM2 degradation) worked out at 14.5 µM; the Km GM2AP came out at 14.5 µM; the Km [GM2AP], µM (GM2AP-dependent GM2 hydrolysis, natural substrate assay) was determined as 14.5 µM. This molecule also had a K uptake (nM) MUG activity in data set [2] of 3.3 nM.

B4: Mod2B (Modified β/β homodimer) (protein)
chain: TQVQQLLVSITLQSECDAFPNISSDESYTLLVKEPVAVLKANRVWGALRGLETFSQLVYQDSYGTFTINESTIIDSPRFSHRGILIDTSRHYLPVKIILKTLDAMAFNKFNVLHWHIVDDQSFPYQSITFPELSNKGSYSLSHVYTPNDVRMVIEYARLRGIRVLPEFDTPGHTLSWGKGQKDLLTPCYSGSEPSGTFGPINPTLNTTYSFLTTFFKEISEVFPDQFIHLGGDEVEFKCWESNPKIQDFMRQKGFGTDFKKLESFYIQKVLDIIATINKGSIVWQEVFDDKAKLAPGTIVEVWKDSAYPEELSRVTASGFPVILSAPWYLNRISYGQDWRKYYKVEPLDFGGTQKQKQLFIGGEACLWGEYVDATNLTPRLWPRASAVGERLWSSKDVRDMDDAYDRLTRHRCRMVERGIAAQPLYAGYCNHENM
Regarding B4, in data set [1], the “GM2AP-dependent kinetics of GM2 hydrolysis” value is on record as “GM2AP binding kinetics to the Hex homodimers was comparable to the wild type heterodimer”; the Km (Kinetic data of FIG. 2, GM2AP-dependent GM2 degradation) worked out at 20.4 µM; the Km [GM2AP], µM (GM2AP-dependent GM2 hydrolysis, natural substrate assay) was 20.4 µM.
